This note sets out measurements from article PMC10866687 (2024).

B1: cortactin-GFP (wild type), in 293T cells [not stated] / FLAG-MAP1B-LC1 (wild type) [not stated (human or rat cDNA cloned)] (parent complex)
chain 1: not shown
chain 2: DRSPSPRHPDVSMVDPEALAIEQNLGKALKKDLKEKTKTKKPGTKTKSSSPVKKSDGKSKPLAASPKPAGLKESSDKVSRVASPKKKESVEKAAKPTTTPEVKAARGEEKDKETKNAANASASKSAKTATAGPGTTKTTKSSAVPPGLPVYLDLCYIPNHSNSKNVDVEFFKRVRSSYYVVSGNDPAAEEPSRAVLDALLEGKAQWGSNMQVTLIPTHDSEVMREWYQETHEKQQDLNIMVLASSSTVVMQDESFPACKIEL

In the assay the parent is B1. Briefly: coimmunoprecipitation (IP FLAG, immunoblot quantification); n = 4 experiments; parent: 100; read off a plot. In general terms: Immunoblotting shows a protein as a band on a membrane.
Regarding chain 2 K95A, chain 2 P96A, the percent of parent is ~110 % of WT.

Take chain 2 K41A, chain 2 P42A: the percent of parent is ~76 % of WT.

Take chain 2 P66A, chain 2 K67A, chain 2 P68A: the percent of parent is ~93 % of WT.

Regarding chain 2 P145A, chain 2 P146A, the percent of parent is ~36 % of WT.

Take chain 2 K60A, chain 2 P61A: the percent of parent is ~120 % of WT.

For the variant chain 2 P6A, chain 2 R7A, the percent of parent was ~78 % of WT.
